Measured values from patent US20170145112A1 (Genentech, published 2017).
Positions count from the first letter of the chain named. Numbers in names are those of the source. One block for each binder: values may come before it.

Tests used:
[1] = molecular target: T1, Human complement Factor D, mature (human, UniProt P00746 27-253); experiment: cell-based or functional assay
Target sequence in this assay (P00746 27-253): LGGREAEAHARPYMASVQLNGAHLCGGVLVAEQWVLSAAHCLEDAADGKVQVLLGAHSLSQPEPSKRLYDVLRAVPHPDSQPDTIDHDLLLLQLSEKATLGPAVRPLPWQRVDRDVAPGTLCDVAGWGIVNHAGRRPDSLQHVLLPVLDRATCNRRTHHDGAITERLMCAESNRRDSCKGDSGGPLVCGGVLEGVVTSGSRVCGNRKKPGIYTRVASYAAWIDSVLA

[2] = molecular target: T1, Human complement Factor D, mature; experiment: SPR (Biacore T200): Fab captured with anti-huFab kit, human Factor D injected, 25 C, 1:1 model;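 also: sensorgrams were corrected by subtracting a blank injection of running buffer before fitting kinetic and affinity constants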
Method: (§1) Kinetics and binding constant KD for Factor D binding to immobilized hu20D12 versions was determined by surface plasmon resonance (SPR) measurements on a Biacore®T200 instrument. […] After subtraction of the sensorgram observed for injection of running buffer, data were analyzed according to a 1:1 model using BiaEval software v4.1 (GE Healthcare) to extract the kinetics and affinity constants.

[3] = molecular target: T1, Human complement Factor D, mature; experiment: cell-based or functional assay; remark: listed apart in the source
[4] = molecular target: T2, Cynomolgus monkey complement Factor D (cynomolgus monkey, UniProt P00746 26-253 (human entry)); experiment: SPR (Biacore T200), Fab format; cynomolgus Factor D (column 'KD (pM) cFD (cyno)')
T2 construct: also called cyfD; cFD
T2 chain: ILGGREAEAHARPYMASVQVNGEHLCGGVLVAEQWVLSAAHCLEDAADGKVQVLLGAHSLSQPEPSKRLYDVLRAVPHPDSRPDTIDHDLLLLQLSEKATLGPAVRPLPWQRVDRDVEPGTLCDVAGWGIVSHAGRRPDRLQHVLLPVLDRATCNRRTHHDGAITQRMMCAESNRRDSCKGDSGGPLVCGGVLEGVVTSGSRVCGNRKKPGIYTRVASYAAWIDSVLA

[5] = molecular target: T1, Human complement Factor D, mature; experiment: cell-based or functional assay; remark: listed apart in the source
Target sequence in this assay (P00746 27-253): as the sequence (P00746 27-253) above

[6] = molecular target: T1, Human complement Factor D, mature; experiment: cell-based or functional assay; remark: listed apart in the source
[7] = molecular target: T1, Human complement Factor D, mature; experiment: SPR, Fab captured by anti-huFab, human Factor D injected
Method: as §1

[8] = molecular target: T1, Human complement Factor D, mature; experiment: SPR, at the limit of detection
Target sequence in this assay (P00746 27-253): as the sequence (P00746 27-253) above
Method: as §1

AVG IC50 (pM), TR-FRET assay of Factor D-dependent factor B activation [1]: 11 pM
B1: AFD.v8.C + PEG tetramer (Fab, V domains shown)
VH: EVQLVQSGPELKKPGASVKVSCKASGYTFTNYGMNWVRQAPGQGLEWMGWINTYTGETTYAEDFKGRFVFSLDTSVSTAYLQISSLKAEDTAVYYCEREGGVNNWGQGTLVTVSS
VL: DIQVTQSPSSLSASVGDRVTITCITSTSIESDMNWYQQKPGKVPKLLISGGNTLRPGVPSRFSGSGSGTDFTLTISSLQPEDVATYYCLQSDSLPYTFGQGTKVEIKR
modifications: C-terminal Cys linked through maleimide to 40K-tetramer-PEG (Sunbright PTE-400MA)

Kd [2]: 0.0105 nM | koff [2]: 0.00021 s⁻¹ | kon [2]: 2e+07 M⁻¹ s⁻¹ | FRET IC50 (TR-FRET assay of Factor D-dependent factor B activation), value 1 of 2 in the cell [3]: 0.021 nM | FRET IC50 (TR-FRET assay of Factor D-dependent factor B activation), value 2 of 2 in the cell [3]: 0.028 nM | AVG IC50 (pM), TR-FRET assay of Factor D-dependent factor B activation [1]: 27.6 pM | Kd [4]: 0.024 nM
B2: AFD.v8 Fab (Fab, V domains shown)
VH: B1 VH
VL: B1 VL
notes: Variant of lampalizumab

AVG IC50 (pM), TR-FRET assay of Factor D-dependent factor B activation [1]: 14.8 pM
B3: AFD.v14.C + PEG tetramer (Fab, V domains shown)
VH: B1 VH with N103S
VL: B1 VL
modifications: C-terminal Cys linked through maleimide to a PEG tetramer

Kd [2]: 0.0233 nM | koff [2]: 0.00021 s⁻¹ | kon [2]: 9e+06 M⁻¹ s⁻¹ | FRET IC50 (TR-FRET assay of Factor D-dependent factor B activation), value 1 of 3 in the cell [3]: 0.025 nM | FRET IC50 (TR-FRET assay of Factor D-dependent factor B activation), value 2 of 3 in the cell [3]: 0.034 nM | FRET IC50 (TR-FRET assay of Factor D-dependent factor B activation), value 3 of 3 in the cell [3]: 0.026 nM | IC50, TR-FRET assay of Factor D (50 pM) cleavage of factor B [5]: 26 pM | AVG IC50 (pM), TR-FRET assay of Factor D-dependent factor B activation [1]: 34 pM | Kd [4]: 0.056 nM
B4: AFD.v14 Fab (Fab, V domains shown)
VH: B1 VH with N103S
VL: B1 VL
notes: Variant of lampalizumab; also called SIESD.N103S

Kd [4]: 0.03 nM
B5: Lampalizumab (Fab, V domains shown)
VH: B1 VH with E62D
VL: B1 VL with S28D, E30D, S31D
notes: Humanized anti-Factor D Fab fragment; also called aFD.WT; FCFD4515S

AVG IC50 (pM), TR-FRET assay of Factor D-dependent factor B activation [1]: 35.2 pM
B6: hu20D12.v2.3.C + PEG tetramer (Fab, V domains shown)
VH: EVQLVQSGAEVKKPGASVKVSCKASGYTFTSYYMYWVRQAPGQGLEWIGEINPYSGDTNFNEKFKSRATLTVDTSTSTAYLELSSLRSEDTAVYYCAREGGFAYWGQGTLVTVSS
VL: DIQMTQSPSSLSASVGDRVTITCKASQNVDTDVAWFQQKPGKAPKGLIRSASSRYSGVPSRFSGSGSGTDFTLTISSLQPEDFATYYCQQYNNYPLTFGQGTKVEIKR
modifications: C-terminal Cys linked through maleimide to 40K-tetramer-PEG (Sunbright PTE-400MA)

IC50, TR-FRET assay of Factor D (50 pM) cleavage of factor B [5]: 31 pM
B7: hu20D12.v2.1.C+TP-Oct (Fab, V domains shown)
VH: B6 VH with Y54T, D57G
VL: B6 VL
modifications: C-terminal Cys (Cys-226, EU numbering) linked through maleimide to a 40K eight-armed PEG with tripentaerythritol (TP) core

Kd [7]: 0.033 nM
B8: hu20D12.v1 Fab (Fab, V domains shown)
VH: B6 VH with Y54T, S55N, D57G
VL: B6 VL with R49Y
notes: Fab expressed in E. coli
IC50 Hemolysis [6]: 2.8 nM

IC50, TR-FRET assay of Factor D (50 pM) cleavage of factor B [5]: 13 pM
B9: hu20D12.v2.3.C+TP-Oct (Fab, V domains shown)
VH: B6 VH
VL: B6 VL
modifications: C-terminal Cys (Cys-226, EU numbering) linked through maleimide to a 40K eight-armed PEG with tripentaerythritol (TP) core

Kd [2]: 0.185 nM | koff [2]: 0.0063 s⁻¹ | kon [2]: 3.4e+07 M⁻¹ s⁻¹
B10: hu20D12.v2.9 Fab (Fab, V domains shown)
VH: B6 VH with E50W, Y54T, D57G
VL: B6 VL with R49Y

Kd [2]: 0.143 nM | koff [2]: 0.0003 s⁻¹ | kon [2]: 2.1e+06 M⁻¹ s⁻¹
B11: hu20D12.v2.6 Fab (Fab, V domains shown)
VH: B6 VH with Y54T, D57G
VL: B6 VL with R49S

Kd [7]: 0.045 nM
B12: hu20D12.v1.1 Fab (Fab, V domains shown)
VH: B6 VH with Y54T, S55Q, D57G
VL: B6 VL with R49Y
notes: Fab expressed in E. coli; also called Hu20D12.v1.N54Q
IC50 Hemolysis [6]: 6.7 nM

Kd [2]: < 0.01 nM | koff [2]: 6e-05 s⁻¹ | kon [2]: 1.9e+07 M⁻¹ s⁻¹ | FRET IC50 (TR-FRET assay of Factor D-dependent factor B activation) [3]: 0.024 nM | Kd [8]: ~0.01 nM | Kd [4]: 0.027 nM
B13: hu20D12.v2.15 Fab (Fab, V domains shown)
VH: B6 VH with D57E
VL: B6 VL

Kd [2]: 10 nM | koff [2]: 0.03 s⁻¹ | kon [2]: 3e+06 M⁻¹ s⁻¹
B14: hu20D12.v2.11 Fab (Fab, V domains shown)
VH: B6 VH with Y54T, D57G
VL: B6 VL with R49Y, Y55R

Kd [2]: 0.045 nM | koff [2]: 0.00079 s⁻¹ | kon [2]: 1.7e+07 M⁻¹ s⁻¹
B15: hu20D12.v2.5 Fab (Fab, V domains shown)
VH: B6 VH with D57G
VL: B6 VL with R49Y

Kd [2]: 0.061 nM | koff [2]: 0.004 s⁻¹ | kon [2]: 6.6e+07 M⁻¹ s⁻¹
B16: hu20D12.v2.8 Fab (Fab, V domains shown)
VH: B6 VH with Y54T, D57G
VL: B6 VL with R49Q

Kd [2]: < 0.01 nM | koff [2]: 0.00013 s⁻¹ | kon [2]: 4.1e+07 M⁻¹ s⁻¹ | Kd [8]: ~0.01 nM
B17: hu20D12.v2.13 Fab (Fab, V domains shown)
VH: B6 VH with Y54T, D57G
VL: B6 VL with N92E

Kd [2]: 0.028 nM | koff [2]: 0.00049 s⁻¹ | kon [2]: 1.7e+07 M⁻¹ s⁻¹
B18: hu20D12.v2.4 Fab (Fab, V domains shown)
VH: B6 VH with Y54T, D57E
VL: B6 VL with R49Y

Kd [2]: 0.049 nM | koff [2]: 0.00055 s⁻¹ | kon [2]: 1.1e+07 M⁻¹ s⁻¹
B19: hu20D12.v2.7 Fab (Fab, V domains shown)
VH: B6 VH with Y54T, D57G
VL: B6 VL with R49K

Kd [2]: < 0.01 nM | koff [2]: 2.9e-05 s⁻¹ | kon [2]: 1.2e+07 M⁻¹ s⁻¹ | FRET IC50 (TR-FRET assay of Factor D-dependent factor B activation), value 1 of 3 in the cell [3]: 0.025 nM | FRET IC50 (TR-FRET assay of Factor D-dependent factor B activation), value 2 of 3 in the cell [3]: 0.031 nM | FRET IC50 (TR-FRET assay of Factor D-dependent factor B activation), value 3 of 3 in the cell [3]: 0.031 nM | Kd [8]: ~0.01 nM | IC50, TR-FRET assay of Factor D (50 pM) cleavage of factor B [5]: 31 pM | AVG IC50 (pM), TR-FRET assay of Factor D-dependent factor B activation [1]: 31.2 pM | Kd [4]: 0.024 nM
B20: hu20D12.v2.3 Fab (Fab, V domains shown)
VH: B6 VH
VL: B6 VL

Kd [2]: < 0.01 nM | koff [2]: 0.00015 s⁻¹ | kon [2]: 1.8e+07 M⁻¹ s⁻¹ | Kd [8]: ~0.01 nM
B21: hu20D12.v2.12 Fab (Fab, V domains shown)
VH: B6 VH with D57G
VL: B6 VL

Kd [2]: 6 nM | koff [2]: 0.03 s⁻¹ | kon [2]: 5e+06 M⁻¹ s⁻¹
B22: hu20D12.v2.10 Fab (Fab, V domains shown)
VH: B6 VH with Y54T, D57G
VL: B6 VL with R49Y, Y55K

Kd [2]: 0.065 nM | koff [2]: 0.00095 s⁻¹ | kon [2]: 1.5e+07 M⁻¹ s⁻¹
B23: hu20D12.v2.2 Fab (Fab, V domains shown)
VH: B6 VH with Y54T
VL: B6 VL with R49Y

Kd [2]: < 0.01 nM | koff [2]: 8e-05 s⁻¹ | kon [2]: 1.5e+07 M⁻¹ s⁻¹ | FRET IC50 (TR-FRET assay of Factor D-dependent factor B activation) [3]: 0.025 nM | Kd [8]: ~0.01 nM | Kd [4]: 0.05 nM
B24: hu20D12.v2.14 Fab (Fab, V domains shown)
VH: B6 VH with Y54T, D57E
VL: B6 VL
